Data: US11826422B2, “Methods and compositions for adaptive immune modulation” (THE BOARD OF REGENTS OF THE UNIVERSITY OF TEXAS SYSTEM, priority 2016, dated 2023)

B1: ovalbumin (protein, UniProt P01012 2-386, looked up)
Ovalbumin: GSIGAASMEFCFDVFKELKVHHANENIFYCPIAIMSALAMVYLGAKDSTRTQINKVVRFDKLPGFGDSIEAQCGTSVNVHSSLRDILNQITKPNDVYSFSLASRLYAEERYPILPEYLQCVKELYRGGLEPINFQTAADQARELINSWVESQTNGIIRNVLQPSSVDSQTAMVLVNAIVFKGLWEKAFKDEDTQAMPFRVTEQESKPVQMMYQIGLFRVASMASEKMKILELPFASGTMSMLVLLPDEVSGLEQLESIINFEKLTEWTSSNVMEERKIKVYLPRMKMEEKYNLTSVLMAMGITDVFSSSANLSGISSAESLKISQAVHAAHAEINEAGREVVGSAEAGVDAASVSEEFRADHPFLFCIKHIATNAVLFFGRCVSP
notes: model antigen/allergen, Grade V, Sigma

Tests used:
[1] = cited from earlier work
total IgE = test: Serum total IgE by sandwich ELISA, OVA sensitization and aerosol challenge mouse model; type: in vivo; design: unit not given here; settings: mean±SEM
Description: (§1) Female BALB/c mice (6-10 weeks of age) were purchased from Charles River, Wilmington, Mass., and housed five mice per cage in a 12/12 h light/dark cycle with food and water available ad libitum. All experimental procedures were approved by the institutional animal ethics committee (IAUCUC) at the Institute of Biosciences and Technology, Texas A&M HSC.
(§2) Synthetic TLR ligands (referred to as O/P) were purchased from InvivoGen (San Diego, Calif.), reconstituted in endotoxin-free water, and suspended in 8 ml sterile PBS at the following concentrations: Pam2 10 μg/ml; ODN2395 20 μg/ml. Mice were sensitized to ovalbumin (OVA) ([…], Grade V, 2.25 mg alum in saline, pH7.4; Sigma, St. Louis, Mo.) administered by intraperitoneal (IP) injection once weekly for one or two weeks. Sensitized mice were exposed for 30 min to an aerosol of 2.5% (wt/vol) ovalbumin in 0.9% saline, via Aerotech II nebulizer (CIS US, Inc.) combined with or without O/P in the presence of room air supplemented with 5% CO2 to promote maximal ventilation and homogeneous aerosol exposure throughout the lungs.
Serum immunoglobulin concentrations were determined by standard sandwich ELISA technique using 96 well Easywash high binding flat bottom plates (Corning). All reagents were diluted in assay diluent (TBS+0.1% BSA [Calbiochem]) except for the coating reagent, which was diluted in TBS only. All wells were washed with wash buffer (TBS+0.1% Tween-20) 3×s, 5 minutes per wash, and all samples developed by adding TMB Substrate Reagent (BD Biosciences) for 30 minutes in the dark. Reactions were stopped by addition of 2N H2SO4 and absorbance read at 450 nm. All readings used in the data fell within the linear portion of the standard curves.
The same protocol was followed for determining total IgE using the following amounts of reagents: 2 μg/mL goat anti-mouse IgE (AbD Serotec, STAR166), 2 μg/mL Biotin Rat Anti-Mouse IgE (BD Biosciences, clone R35-118). For OVA IgG1, the following amounts of reagents were used: 100 μg/mL OVA (Sigma) and 0.1 μg/mL Biotin Rat Anti-Mouse IgG1 (eBioscience, clone M1-14D12). For total IgG1: 2 μg/mL Rat Anti-Mouse IgG1 (BioLegend, clone RMG1-1), 0.05 μg/mL Biotin Rat Anti-Mouse IgG1 (eBioscience, clone M1-14D12). For IgG2a: 2 μg/mL Rat Anti-Mouse IgG2a (BioLegend, clone RMG2a-62) and 0.05 μg/mL Biotin Goat Anti-Mouse IgG2a (AbD Serotec, 108008). For total IgG: 2 μg/mL Goat Anti-Mouse IgG (AbD Serotec, 103001) and 0.025 μg/mL Biotin Sheep Anti-Mouse IgG (AbD Serotec, AAC10B).

eosinophils (EOS) in BAL = test: BAL total and differential cell counts (Wright-Giemsa), OVA model; type: in vivo, mouse; settings: FIG. 3B; sensitization optimization, Group 8: two IP OVA/alum, aerosol two times/week
Description: as §2
BAL was obtained by instilling and withdrawing two, 1 ml aliquots of PBS via trachea cannula (luer stub adapter, BD Biosciences). Total leukocyte count was determined with a hemocytometer (Houser Scientific, Horsham, Pa.), and slides for differential cell count were prepared by cytospin of 300 μl of BAL fluid at 500×g for 5 min, followed by Wright-Giemsa staining.

IgG2a = test: Serum IgG2a by sandwich ELISA, OVA model; type: in vivo, mouse; settings: FIG. 2; aerosol 6×, Group 6; mean±SEM
Description: as §1, §2
(§3) Serum immunoglobulin concentrations were determined by standard sandwich ELISA technique using 96 well Easywash high binding flat bottom plates (Corning). […] Reactions were stopped by addition of 2N H2SO4 and absorbance read at 450 nm. All readings used in the data fell within the linear portion of the standard curves. […]

IgG1 = test: Serum total IgG1 by sandwich ELISA, OVA model; type: in vivo, mouse; settings: FIG. 2; aerosol 6×, Groups 4 and 6; mean±SEM
Description: as §1, §2, §3

OVA-specific IgE = test: Serum OVA-specific IgE by sandwich ELISA, OVA sensitization and aerosol challenge mouse model; type: in vivo; settings: mean±SEM
Description: as §1, §2, §3

Molecule	solubility in dimethyl sulfoxide and dimethylformamide ([1]; dimethyl sulfoxide, dimethylformamide)	solubility in methanol and 95% ethanol ([1]; methanol, 95% ethanol)	solubility in water ([1]; water)	total IgE (total IgE; FIG. 1B, serum, day 21, aerosol 6× (three times/week for 2 weeks from second immunization), Groups 4 and 6)	total IgE (total IgE; FIG. 4, sensitization optimization, Group 5: one IP OVA/alum, OVA aerosol two times/week)	total IgE (total IgE; FIG. 4, sensitization optimization, Group 8: two IP OVA/alum, OVA aerosol two times/week)	total IgE (total IgE; FIG. 6 top panel, two OVA immunizations, aerosol schedule of FIG. 5A, Groups 2 and 3)	eosinophils (EOS) in BAL (eosinophils (EOS) in BAL)	IgG2a levels (IgG2a)	IgG1 levels (IgG1)	OVA-specific IgE (OVA-specific IgE; FIG. 1C, serum, day 21, aerosol 6×, Groups 4 and 6)	OVA-IgE (OVA-specific IgE; FIG. 6 second panel, aerosol schedule of FIG. 5A, Groups 2 and 3)
CCC(=O)O[C@]1(C(=O)SCF)[C@H](C)C[C@H]2[C@@H]3C[C@H](F)C4=CC(=O)C=C[C@]4(C)[C@@]3(F)[C@@H](O)C[C@@]21C [Fluticasone propionate, S-(fluromethyl)6α,9-difluoro-11β-17-dihydroxy-16α-methyl-3-oxoandrosta-1,4-diene-17β-carbothioate,17-propionate]	freely soluble	slightly soluble	practically insoluble	–	–	–	–	–	–	–	–	–
B1	–	–	–	17.23±1.82	5.36±1.70	11.05±2.39	24.66±8.23	elevated compared to all other groups	25±3	6.01±0.66	4.36±0.82	3.77±1.00
